Results as given in patent publication US20240368304A1.

Biological target: epidermal growth factor receptor variant III (EGFRvIII) on U87EGFRvIII cells (UniProt P00533)
Test: cell-based or functional assay

- Human IFN-gamma release from CAR T cells co-cultured with U87 VIII GFP target cells (sandwich ELISA, E:T 10:3): 4750
Substance: 2173 CD28zeta CAR (EGFRvIII specific CAR) on transduced primary human T cells
- % cytolysis (killing) of U87 VIII GFP target cells, xCELLigence eSight impedance: 100%
